Source: US20190031751A1 (University of Texas, published 2019)

Biological target: T1, Human epidermal growth factor (EGF)-like domain multiple 6 (EGFL6) protein (human, UniProt Q8IUX8 22-553)
T1 construct: Secreted protein; also called human EGFL6; recombinant human EGFL6
T1 sequence (looked up): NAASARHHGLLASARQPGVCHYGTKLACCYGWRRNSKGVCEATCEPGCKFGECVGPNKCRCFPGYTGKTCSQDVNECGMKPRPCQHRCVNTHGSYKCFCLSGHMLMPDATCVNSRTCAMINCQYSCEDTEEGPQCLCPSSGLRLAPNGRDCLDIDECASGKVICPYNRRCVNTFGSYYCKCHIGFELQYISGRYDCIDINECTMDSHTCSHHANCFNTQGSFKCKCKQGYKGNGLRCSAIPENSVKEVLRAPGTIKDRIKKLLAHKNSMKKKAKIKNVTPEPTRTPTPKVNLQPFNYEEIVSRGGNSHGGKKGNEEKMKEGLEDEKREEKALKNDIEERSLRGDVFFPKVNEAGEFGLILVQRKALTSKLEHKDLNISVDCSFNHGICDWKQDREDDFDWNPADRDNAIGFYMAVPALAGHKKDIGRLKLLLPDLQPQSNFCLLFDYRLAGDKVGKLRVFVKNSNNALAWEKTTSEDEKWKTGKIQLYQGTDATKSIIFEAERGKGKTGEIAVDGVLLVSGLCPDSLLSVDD
Assay: ELISA titration on coated EGFL6, 4-parameter curve fit
Protocol: Binding of EGFL6 by monoclonal antibodies was first screened by ELISA using supernatants collected from the B cell cultures (FIG. 2). ELISA titration was used to determine the binding affinity of a panel of monoclonal antibodies to EGFL6 antigen (FIG. 3). Binding constants (KD and/or EC 50) of a panel of monoclonal antibodies were estimated using the 4 parameter curve fitting with Prism GraphPad program. For Biacore analysis, all experiments were performed at 25° C. at a flow rate of 45 μl/min. An anti-human IgG Fc antibody (from ThermoFisher, at 50 μg/ml each in acetate buffer, pH 5.0) was immobilized onto a carboxymethyl dextran sensorchip (CMS) using amine coupling procedures based on instruction from the manufacturer. Purified rabbit/human chimeric antibody to be tested was diluted at a concentration of 5 μg/ml in 0.5% P20, HBS-EP buffer and injected on FC2 to reach 500 to 1000 RU. FC1 was used as the reference cell. Specific signals correspond to the difference of signals obtained on FC2 versus FC1. The analyte (recombinant human EGFL6, apparent molecular weight 60 kDa on SDS-PAGE gel) was injected during 90 sec at series of concentration dilutions (100, 50, 25, 12.5, 6.25, and 3.13, 1.56 nM) in 0.5% P20, HBS-EP buffer. These concentrations were prepared from stock solution in 0.5% P20, HBS-EP. The dissociation phase of the analyte was monitored over a 30 minutes period. Running buffer was also injected under the same conditions as a double reference. After each running cycle, both flow cells were regenerated by injecting 20 to 45 μl of Glycine-HCl buffer pH 1.5. Binding KD on EGFL6 was calculated by koff/kₒₙ kinetic rate for each EGFL6 monoclonal antibodies (Table 3).

Binder	EC50
E2-93 monoclonal antibody (antibody, V domains shown, Rabbit variable domains; also called Mab #93; mAb93) VH: QSVKESEGGLVQPEGSLTLTCKASGFSFSSYGVNWVRQAPGKGLEWIAYIGLSSEITYYAGWAKGRFTISKPSSTTVTLQMTSLTAADTATYFCVRDLYHSNGLWGPGTLVTISS VL: ELDLTQTPSPVSAAVGGTVTVSCQASESVYNNNRLSWYQQKPGQPPKLLIYYASTLASGVPSRFSGSGSGTQFTLTISSVQCADAATYYCVAFKGYGTDGNAFGGGTEVEIK	0.37 ng/mL
E1-38 monoclonal antibody (antibody, V domains shown, Rabbit variable domains) VH: EQSVKESGGDLVKPEGSLTLTCTASGFSFNSGYWVCWVRQAPGKGLEWIACIYTSSPTGAIYYATWAKGRFTISQTSSTTVTLQMTSLTAADTATYFCTRDNFGGGGSASKLWGPGTLVTISS VL: ELVMTQTPSSKSVPVGGTVTIDCQASESVYSNNRCAWYQQKPGQPPKLLIYYASTLASGVPSRFKCSGSGTRFTLTISGVQCEDAATYYCAGYKTADSDGLGFGGGTEVEIK	5.81 ng/mL
E2-135 monoclonal antibody (antibody, V domains shown, Rabbit variable domains; also called mAb135) VH: QSVKESEGDLVKPGASLTLTCKASGFDFSSSYFMCWVRQAPGRGLEWIACIYTVISRKTYYASWAKGRFTISKTSATTVDLQMTSLTAADTATYFCARSATIERLDLWGQGTLVTVSS VL: ELDLTQTPSPVSAPVGGTVTINCQASESVYNNYRLSWYQQKPGQPPKLLIYAASTLASGVPSRFKGSGSGTQFTLAISDVVCDDAATYYCVGYKSGYIDSIPFGGGTEVVVK	0.44 ng/mL
E1-34 monoclonal antibody (antibody, V domains shown, Rabbit variable domains) VH: EQSVKESGGGLVQPEGSLTLTCTASGFSFSSIYWICWVRQAPGKGLELIACIQITSGITYYASWAKGRFTISKMSSTTVTLQMTSLTVADTATYFCGRRGYGAYAGTGASDLWGPGTLVTVSS VL: ELDLTQTASSVSAAVGGTVTINCQSSQSVYNNNNLAWYQQKPGQPPKLLIYEASKLASGVPSRFKGSGSGTQFTLTISGVQCDDAATYYCAGGYAGYIWAFGGGTEVVVK	0.78 ng/mL
E1-142 monoclonal antibody (antibody, V domains shown, Rabbit variable domains) VH: QSLEESGGDLVKPGASLTLTCTASGFTINNYNINWVRQAPGKGLEWIARIWNGDGSTYYASWAKGRFTISKTSSTTVTLQMTSLTAADTATYFCARNFNLWGPGTLVTISS VL: ELVLTQTPSPVSAAVGGTVTINCQSSASVYSNNYLSWFQQKPGQPPKPLIYYASTLASGVPSRFKGSGSGTQFTLTISDVQCDDAATYYCAGDYSSSSDMCIFGGGTELEIK	1.91 ng/mL
